Laboratory results taken from patent US20110262474A1.

Legend:
[1] = molecular target: recombinant WT HIV-1 JRCSF gp120 core polypeptide (HIV-1 subtype B, strain JRCSF) (UniProt P20871); assay: SPR (Biacore 2000), KA = ka/kd from a single-site fit; * best curve fit, dissociation slower than the limit of detection of the instrument
[2] = molecular target: recombinant WT HIV-1 JRCSF gp120 full-length polypeptide (HIV-1 subtype B, strain JRCSF) (UniProt P20871); assay: as above
[3] = molecular target: HIV-1 1196 gp160 envelope protein on pseudovirus (HIV-1 subtype B, strain 1196); assay: cell-based or functional assay
[4] = molecular target: HIV-1 6535 gp160 envelope protein on pseudovirus (HIV-1 subtype B, strain 6535); assay: cell-based or functional assay
[5] = molecular target: HIV-1 92HT594 gp160 envelope protein on pseudovirus (HIV-1 subtype B, strain 92HT594); assay: cell-based or functional assay
[6] = molecular target: HIV-1 92RW020 gp160 envelope protein on pseudovirus (HIV-1 subtype A, strain 92RW020); assay: cell-based or functional assay
[7] = molecular target: HIV-1 93BR020 gp160 envelope protein on pseudovirus (HIV-1 subtype F, strain 93BR020); assay: cell-based or functional assay
[8] = molecular target: HIV-1 93BR029 gp160 envelope protein on pseudovirus (HIV-1 subtype F, strain 93BR029); assay: cell-based or functional assay
[9] = molecular target: HIV-1 93MW960 gp160 envelope protein on pseudovirus (HIV-1 subtype C, strain 93MW960); assay: cell-based or functional assay
[10] = molecular target: HIV-1 93TH305 gp160 envelope protein on pseudovirus (HIV-1 subtype E, strain 93TH305); assay: cell-based or functional assay
[11] = molecular target: HIV-1 BaL gp160 envelope protein on pseudovirus (HIV-1 subtype B, strain BaL); assay: cell-based or functional assay
[12] = molecular target: HIV-1 JRCSF gp160 envelope protein on pseudovirus (HIV-1 subtype B, strain JRCSF) (UniProt P20871); assay: cell-based or functional assay
[13] = molecular target: HIV-1 NL4-3 gp160 envelope protein on pseudovirus (HIV-1 subtype B, strain NL4-3); assay: cell-based or functional assay
[14] = molecular target: HIV-1 QH0692 gp160 envelope protein on pseudovirus (HIV-1 subtype B, strain QH0692); assay: cell-based or functional assay
[15] = molecular target: HIV-1 QZ4589 gp160 envelope protein on pseudovirus (HIV-1 subtype B, strain QZ4589); assay: cell-based or functional assay
[16] = molecular target: HIV-1 SF162 gp160 envelope protein on pseudovirus (HIV-1 subtype B, strain SF162); assay: cell-based or functional assay
[17] = molecular target: HIV-1 VLGCG4 gp160 envelope protein on pseudovirus (HIV-1 subtype G, strain VLGCG4); assay: cell-based or functional assay
[18] = molecular target: amphotropic MLV envelope protein on pseudovirus (amphotropic murine leukemia virus); assay: cell-based or functional assay
[19] = molecular target: chimeric gp120 core polypeptide variant L7-043CDC; assay: SPR (Biacore 2000), KA = ka/kd from a single-site fit
[20] = molecular target: chimeric gp120 core polypeptide variant L7-043; assay: as above
[21] = molecular target: recombinant WT HIV-1 JRCSF gp120 core polypeptide (HIV-1 subtype B, strain JRCSF) (UniProt P20871); assay: as above
[22] = molecular target: recombinant WT HIV-1 JRCSF gp120 full-length polypeptide (HIV-1 subtype B, strain JRCSF) (UniProt P20871); assay: as above
[23] = molecular target: chimeric gp120 core polypeptide variant L7-043; assay: SPR (Biacore 2000), KA relative to the JR-CSF gp120 core row (= 1)
[24] = molecular target: recombinant WT HIV-1 JRCSF gp120 core polypeptide (HIV-1 subtype B, strain JRCSF) (UniProt P20871); assay: SPR (Biacore 2000), mAb captured on anti-human gamma chain antibody, gp120 injected
[25] = molecular target: recombinant WT HIV-1 JRCSF gp120 full-length polypeptide (HIV-1 subtype B, strain JRCSF) (UniProt P20871); assay: as above
[26] = molecular target: chimeric gp120 core polypeptide variant L7-043CDC; assay: SPR (Biacore 2000), mAb captured on anti-human gamma chain antibody, gp120 core injected

How did the Ka [1] turn out when human monoclonal antibody IgG1b6 was run?
Its Ka is 6.32e+12 M⁻¹.

What about the Ka [2] of the same substance?
Its Ka is 4.08e+11 M⁻¹.

human monoclonal antibody IgG1b12 was tested. Which IC50 neutralization titer of pseudovirus (luciferase entry assay) [3] did it give?
The IC50 neutralization titer of pseudovirus (luciferase entry assay) was 0.48 µg/mL.

What about the IC50 neutralization titer of pseudovirus (luciferase entry assay) [4] of the same substance?
Its IC50 neutralization titer of pseudovirus (luciferase entry assay) is 0.64 µg/mL.

And the IC50 neutralization titer of pseudovirus (luciferase entry assay) [5]?
Its IC50 neutralization titer of pseudovirus (luciferase entry assay) is 0.02 µg/mL.

What about the IC50 neutralization titer of pseudovirus (luciferase entry assay) [6] of the same substance?
Its IC50 neutralization titer of pseudovirus (luciferase entry assay) is 1.67 µg/mL.

What about the IC50 neutralization titer of pseudovirus (luciferase entry assay) [7] of the same substance?
The IC50 neutralization titer of pseudovirus (luciferase entry assay) was 2.08 µg/mL.

And the IC50 neutralization titer of pseudovirus (luciferase entry assay) [8]?
The IC50 neutralization titer of pseudovirus (luciferase entry assay) was 1.67 µg/mL.

And the IC50 neutralization titer of pseudovirus (luciferase entry assay) [9]?
The IC50 neutralization titer of pseudovirus (luciferase entry assay) was 0.06 µg/mL.

What about the IC50 neutralization titer of pseudovirus (luciferase entry assay) [10] of the same substance?
Its IC50 neutralization titer of pseudovirus (luciferase entry assay) is 0.71 µg/mL.

And the IC50 neutralization titer of pseudovirus (luciferase entry assay) [11]?
Its IC50 neutralization titer of pseudovirus (luciferase entry assay) is 0.01 µg/mL.

What about the IC50 neutralization titer of pseudovirus (luciferase entry assay) [12] of the same substance?
The IC50 neutralization titer of pseudovirus (luciferase entry assay) was 0.06 µg/mL.

And the IC50 neutralization titer of pseudovirus (luciferase entry assay) [13]?
Its IC50 neutralization titer of pseudovirus (luciferase entry assay) is 0.01 µg/mL.

And the IC50 neutralization titer of pseudovirus (luciferase entry assay) [14]?
The IC50 neutralization titer of pseudovirus (luciferase entry assay) was 0.1 µg/mL.

And the IC50 neutralization titer of pseudovirus (luciferase entry assay) [15]?
Its IC50 neutralization titer of pseudovirus (luciferase entry assay) is 0.03 µg/mL.

And the IC50 neutralization titer of pseudovirus (luciferase entry assay) [16]?
The IC50 neutralization titer of pseudovirus (luciferase entry assay) was 0.01 µg/mL.

And the IC50 neutralization titer of pseudovirus (luciferase entry assay) [17]?
The IC50 neutralization titer of pseudovirus (luciferase entry assay) was 0.04 µg/mL.

And the IC50 neutralization titer of pseudovirus (luciferase entry assay) [18]?
Its IC50 neutralization titer of pseudovirus (luciferase entry assay) is over 2.5 µg/mL.

What about the Ka [19] of the same substance?
Its Ka is 2.58e+08 M⁻¹.

What about the Ka [20] of the same substance?
The Ka was 3.8e+08 M⁻¹.

And the Ka [21]?
The Ka was 3.43e+07 M⁻¹.

And the Ka [22]?
The Ka was 3.62e+07 M⁻¹.

What about the Fold Increase [23] of the same substance?
Its Fold Increase is 11.

What about the Ka [24] of the same substance?
The Ka was over 1e+07 M⁻¹.

What about the Ka [25] of the same substance?
The Ka was over 1e+07 M⁻¹.

And the fold increase in b12 affinity against JRCSF gp120 core polypeptide [26]?
Its fold increase in b12 affinity against JRCSF gp120 core polypeptide is over 7.5 fold.
